Test results published in publication PMC8471065.

What was measured:
[1] = target: T1, thrombin (alpha-thrombin not specified) (Homo sapiens (human plasma), UniProt P00734;P00734 328-363;364-622); assay: EMSA; K+; band at start of lane (multi-species complex), no clotting inhibition; 1 uM Cy5-aptamer (10 uL) annealed in 10 mM sodium cacodylate pH 7.2, 100 mM KCl in D2O; 24 pmol thrombin (2.4 eq), 30 min at 25 C; 12% native PAGE, 1x TBE + 10
[2] = target: T1, thrombin (alpha-thrombin not specified); assay: EMSA; K+; only the lower (folded) band bound; 1 uM Cy5-aptamer (10 uL) annealed in 10 mM sodium cacodylate pH 7.2, 100 mM KCl in D2O; 24 pmol thrombin (2.4 eq), 30 min at 25 C; 12% native PAGE, 1x TBE + 10

| Binder | binding result [1] | binding result [2] |
| --- | --- | --- |
| GGGTTGGGTGTGGGTTGGG (structured_DNA, 3'-propargyl linker) [3Q-ppg-Cy5 (Cy5-3Q)] | binds |  |
| GGTTGGTGTGGTTGG (structured_DNA, 3'-propargyl linker) [TBA-ppg-Cy5] |  | binds |
